Experimental data reported in patent US5567433A, “Liposome preparation and material encapsulation method” (Amgen Inc., priority 1995, dated 1996).

B1: G-CSF: recombinant human granulocyte colony stimulating factor (protein, UniProt P09919 31-207, looked up)
Granulocyte …: TPLGPASSLPQSFLLKCLEQVRKIQGDGAALQEKLVSECATYKLCHPEELVLLGHSLGIPWAPLSSCPSQALQLAGCLSQLHSGLFLYQGLLQALEGISPELGPTLDTLQLDVADFATTIWQQMEELGMAPALQPTQGAMPAFASAFQRRAGGVLVASHLQSFLEVSYRVLRHLAQP

Columns and labels:
[1] = In vivo release after subcutaneous injection into rats; design: species or system Sprague-Dawley rats; details: either liposome composition
Experimental: Liposomes composed of either DPPC or DMPG:DSPC:CHOL (1:4:5 molar) were prepared substantially in accordance with Method 4, above, to contain either ^125 I-tyraminyl inulin (at a final specific activity of 0.4×10^6 dpm/ml) or ^125 I-rhG-CSF (at a final specific activity of 1×10^6 dpm/ml). (See: ^125 I-labeled Inulin: A convenient marker for deposition of liposome contents in vivo. Sommerman, E. F., Pritchard, P. H. and Cullis, P. R. Biochem Biophys Res Coramerc Vol. 122(1), 319-324; 1984.) The final lipid composition was 30 mM. The injection site was marked. At various times after injection, the rats were sacrificed and the injection site was excised and counted for remaining ^125 I. Percent release was defined as %Release=100(1-DPMt /DPMo), where DPMt is the dpm remaining at the site at time t, and DPMo is the initial dpm injected (t=0).

[2] = Encapsulation of various protein therapeutics and oligonucleotides using Method 4; type: physicochemical; details: up to; present invention
Experimental: Lipid films, prepared as described in Method 1, were hydrated in water and sonicated. The sonicated dispersions were then subjected to 3-5 cycles of freezing (dry ice/acetone) and thawing (37° C). The dispersions were freeze dried and ground as in Method 2 to form a lipid powder. The powder was subsequently hydrated in G-CSF, and the liposome-encapsulated material was microfluidized as described in Method 1. Unencapsulated G-CSF was separated from encapsulated G-CSF as described in Method 2.
The lipid samples were prepared, sonicated and subjected to freeze/thaw cycles as described in Method 3. Prior to dehydrating the sample, D-mannitol was added (1:1 weight ratio to lipid) as a bulking agent. The samples were freeze-dried and rehydrated, upon use, as described in Method 3. Hydration and microfluidization was carried out as described in Method 1. The samples were then dialyzed as described in Method 2.

[3] = system: G-CSF; test: Reverse phase HPLC of encapsulated G-CSF; type: physicochemical, human; details: C4 reverse phase HPLC
Excerpt: Biologically active material encapsulated in accordance with Method 4, above, was also subjected to reverse phase high pressure liquid chromatography (HPLC) to determine whether liposome-encapsulation led to structural changes in the encapsulated material. For example, G-CSF alone or encapsulated in DMPG:DSPC:CHOL (1:4:5) liposomes was examined by C4 reverse phase HPLC under the following conditions:
Buffer A: 0.1% trifluoroacetic acid in water
Buffer B: 0.1% trifluoroacetic acid in 90% acetonitrile
Gradient: 0-90% B in 60 minutes
Flow rate: 0.8 milliliter/minute
Detection: 220 nanometers
Thirty micrograms of G-CSF was loaded per run. Liposomes were lysed in 40% methanol for 30 minutes at 37° C. prior to chromatography.

Molecule | leakage of inulin or G-CSF [1] | Encapsulation of input [2] | material destruction or aggregation upon encapsulation [3] | structural integrity of G-CSF released from liposomes ([3]; liposomes lysed in 40% methanol) | Recovery ([3]; 30 μg G-CSF injected)
inulin [reference compound] | No significant difference |  |  |  | 
B1 | No significant difference | 80-90% | no material destruction or aggregation | structurally identical to G-CSF which was never encapsulated | 100%
